Reference: paper PMC10123100, “Single-molecule visualization of stalled replication-fork rescue by the Escherichia coli Rep helicase” (Nucleic Acids Research, 2023)

Assays:
dCas9 D10A;H840A = dCas9 D10A;H840A (UniProt Q99ZW2); assay: single-molecule TIRF; conditions: 3'-biotin on strand 2, SPR: 25 mM Tris-HCl pH 7.6, 50 mM NaCl, 5 mM MgCl2, 0.25 mM DTT, 0.2 mM EDTA, 0.005% P20, 20 C, single-molecule: 25 mM Tris-HCl pH 7.9, 10 mM Mg acetate
[1] = molecular target: DnaB helicase (Escherichia coli) (UniProt P0ACB0)
[2] = molecular target: DnaB helicase (Escherichia coli) (UniProt P0ACB0); remark: listed apart in the source
DnaB (Escherichia coli) = DnaB (Escherichia coli) (UniProt P0ACB0); assay: SPR; conditions: cited from earlier work
Sequence of DnaB (Escherichia coli) (P0ACB0 2-471): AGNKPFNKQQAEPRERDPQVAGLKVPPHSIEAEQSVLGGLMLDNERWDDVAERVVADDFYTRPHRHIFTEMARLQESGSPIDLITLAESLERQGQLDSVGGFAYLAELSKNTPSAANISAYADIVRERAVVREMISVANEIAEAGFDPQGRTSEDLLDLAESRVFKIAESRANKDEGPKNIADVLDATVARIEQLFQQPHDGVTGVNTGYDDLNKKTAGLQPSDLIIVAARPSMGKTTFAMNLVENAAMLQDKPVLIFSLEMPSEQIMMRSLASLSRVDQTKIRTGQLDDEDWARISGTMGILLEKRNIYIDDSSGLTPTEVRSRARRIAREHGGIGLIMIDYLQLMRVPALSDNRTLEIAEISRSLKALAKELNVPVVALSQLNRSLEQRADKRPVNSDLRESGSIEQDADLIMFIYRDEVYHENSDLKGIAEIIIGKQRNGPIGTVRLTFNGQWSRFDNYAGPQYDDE

Sequence of DnaB helicase (Escherichia coli) (P0ACB0 whole entry): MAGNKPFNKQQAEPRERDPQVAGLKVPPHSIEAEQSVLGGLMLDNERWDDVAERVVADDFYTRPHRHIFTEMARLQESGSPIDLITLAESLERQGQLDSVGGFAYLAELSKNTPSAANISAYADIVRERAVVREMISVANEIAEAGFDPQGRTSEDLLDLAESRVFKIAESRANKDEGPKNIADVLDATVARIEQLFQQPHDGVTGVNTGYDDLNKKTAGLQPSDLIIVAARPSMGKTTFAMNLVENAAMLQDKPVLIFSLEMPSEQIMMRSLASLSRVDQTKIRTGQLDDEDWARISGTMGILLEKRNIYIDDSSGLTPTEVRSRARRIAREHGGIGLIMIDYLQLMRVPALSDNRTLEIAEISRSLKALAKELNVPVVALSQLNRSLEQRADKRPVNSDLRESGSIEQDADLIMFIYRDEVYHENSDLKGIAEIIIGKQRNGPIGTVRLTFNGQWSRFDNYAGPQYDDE
Sequence of His6-Rep WT (P09980 whole entry): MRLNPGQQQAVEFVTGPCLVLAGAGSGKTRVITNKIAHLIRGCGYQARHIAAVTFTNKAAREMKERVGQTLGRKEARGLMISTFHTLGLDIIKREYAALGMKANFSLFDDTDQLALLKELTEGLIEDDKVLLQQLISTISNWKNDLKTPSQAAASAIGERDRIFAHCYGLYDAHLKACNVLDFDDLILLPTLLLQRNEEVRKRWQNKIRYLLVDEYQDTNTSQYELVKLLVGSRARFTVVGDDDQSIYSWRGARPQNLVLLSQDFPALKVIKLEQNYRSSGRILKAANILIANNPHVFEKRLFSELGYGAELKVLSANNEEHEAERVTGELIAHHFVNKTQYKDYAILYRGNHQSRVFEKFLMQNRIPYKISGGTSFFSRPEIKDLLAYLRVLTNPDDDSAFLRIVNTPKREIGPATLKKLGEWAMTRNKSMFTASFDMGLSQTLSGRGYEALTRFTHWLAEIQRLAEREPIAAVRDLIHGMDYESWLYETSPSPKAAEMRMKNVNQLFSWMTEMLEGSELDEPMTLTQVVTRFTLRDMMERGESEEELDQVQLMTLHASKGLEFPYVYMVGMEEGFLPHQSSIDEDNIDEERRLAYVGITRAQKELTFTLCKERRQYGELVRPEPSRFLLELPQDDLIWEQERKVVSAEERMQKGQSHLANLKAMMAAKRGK
Sequence of His6-Rep ΔC33 (P09980 1-640, stated change not applied): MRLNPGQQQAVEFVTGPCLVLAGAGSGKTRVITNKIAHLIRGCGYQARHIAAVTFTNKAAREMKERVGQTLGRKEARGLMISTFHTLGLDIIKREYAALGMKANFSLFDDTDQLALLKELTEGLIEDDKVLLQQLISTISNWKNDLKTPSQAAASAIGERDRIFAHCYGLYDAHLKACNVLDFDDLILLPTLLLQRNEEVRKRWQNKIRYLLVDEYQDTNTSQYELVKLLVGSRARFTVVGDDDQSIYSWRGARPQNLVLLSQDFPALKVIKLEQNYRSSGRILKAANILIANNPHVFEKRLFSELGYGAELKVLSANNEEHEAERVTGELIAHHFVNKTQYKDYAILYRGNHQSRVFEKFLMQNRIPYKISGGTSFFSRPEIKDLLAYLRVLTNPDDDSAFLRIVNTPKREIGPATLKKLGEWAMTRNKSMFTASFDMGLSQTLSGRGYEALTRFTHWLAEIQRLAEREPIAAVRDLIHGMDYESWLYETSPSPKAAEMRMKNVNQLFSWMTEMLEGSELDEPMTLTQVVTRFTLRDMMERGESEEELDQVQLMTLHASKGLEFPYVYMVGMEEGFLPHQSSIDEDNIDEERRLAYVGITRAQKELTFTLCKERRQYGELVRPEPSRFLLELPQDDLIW
Sequence of Rep (P09980 whole entry): as the sequence (P09980 whole entry) above

CACATGCTATGAGCTGTTGCAATCTCTCGTACAATTAATAGACTGGATGGTGGATGACAAAGCTCTACACTAGATACTCACAC (double strand) [gRNA20 / 83-mer target]
binding signal (min (mean binding lifetime)) (dCas9 D10A;H840A): 1

CACATGCTATGAGCTGTTGCAATCTCTCGTACAATTAATAGACTGGATGGTGGATGACAAAGCTCTACACTAGATACTCACAC (double strand) [gRNA40 / 83-mer target]
binding signal (min (mean binding lifetime)) (dCas9 D10A;H840A): 1

CACATGCTATGAGCTGTTGCAATCTCTCGTACAATTAATAGACTGGATGGTGGATGACAAAGCTCTACACTAGATACTCACAC (double strand) [gRNA60 / 83-mer target]
binding signal (min (mean binding lifetime)) (dCas9 D10A;H840A): 8.3

CACATGCTATGAGCTGTTGCAATCTCTCGTACAATTAATAGACTGGATGGTGGATGACAAAGCTCTACACTAGATACTCACAC (double strand) [gRNA80 / 83-mer target]
binding signal (min (mean binding lifetime)) (dCas9 D10A;H840A): 8.6

His6-Rep WT (from UniProt P09980 1-673) (enzyme)
mean total DNA product length after 3 min in the single-molecule stalled rolling-circle replication assay (template pre-incubated with the dCas9-cgRNA1-Atto647 roadblock), 20 nM Rep WT [1]: 65 kbp | replication efficiency in the single-molecule stalled rolling-circle replication assay (dCas9-cgRNA1-Atto647 roadblock), 20 nM Rep WT [2]: 2%

His6-Rep ΔC33 (from UniProt P09980 1-640) (domain or fragment)
mean total DNA product length after 3 min in the single-molecule stalled rolling-circle replication assay (template pre-incubated with the dCas9-cgRNA1-Atto647 roadblock), 20 nM Rep ΔC33 [1]: 2 kbp

Rep (from UniProt P09980)
Kd (DnaB (Escherichia coli)): 90 nM
